Source: patent publication US12281161B2, “Polypeptides and uses thereof” (TRUSTEES OF BOSTON UNIVERSITY, priority 2021, dated 2025)

Legend:
[1] = AFC concentration in blood plasma of Balb/c mice, ELISA; assay type: in vivo; conditions: 10 mg/kg, samples at 1 hour, 7 and 14 days
Description: To make sure that the coiled-coil has no significant effect on antibody clearance, we performed a preliminary study of AFC concentration in blood plasma (FIG. 33). 10 mg/kg AFC was injected into two Balb/c mice. Blood samples were collected at 1 hour, 7 and 14 days and examined for AFC concentration by ELISA assay.

[2] = test system: NCI-H520; experiment: internalization of AFC, confocal colocalization with EEA1 / LAMP1; assay type: cell-based, human; conditions: NCI-H520, 3 μg/ml, 30 minutes and 1 hour
Description: (§1) The GPR87 receptor is a G-protein coupled receptor (GPCR), a class of receptors which are activated by an extracellular ligand, initiating activation of associated intracellular G proteins for downstream signaling. Following activation, GPCRs are often internalized and recycled to prevent prolonged stimulation. […] Therefore, we wanted to confirm the uptake of our αGPR87 AFC in the two GPR87 high expressing NSCLC cell lines, NCI-H358 and NCI-H520. We cocultured the cells with 3 μg/ml of AFC for either 30 minutes or 1 hour and fixed and permeabilized the cells before immunofluorescently staining for either the early endosomal marker EEA1 or the lysosomal marker LAMP1. Shown in FIG. 11 are the images from these studies with the AFC signal, either the EEA1 or LAMP1 signal, and DAPI. The merged images are shown as well as the AFC and either EEA1 or LAMP1 signals merged, with colocalization. […] To investigate this further, we increased the concentration of AFC to 10 μg/ml and increased the incubation times to 1, 2, and 4 hours. […] By 2 hours, the AFC now is highly colocalized with the lysosomes and further colocalizes by the 4-hour timepoint while also showing less of a membranous staining pattern. From these analyses, we can determine that the AFC is indeed internalized by the human NSCLC cancer cell lines NCI-H520 and NCI-H358, albeit with different apparent kinetics.

[3] = test system: NCI-H358; experiment: as above; assay type: cell-based, human; conditions: NCI-H358, 3 or 10 μg/ml, up to 4 hours
Description: as §1

[4] = preliminary AFC clearance and biodistribution in PDX tumor bearing NSG mice, ELISA; assay type: in vivo; conditions: 10 mg/kg
Description: We had access to a stage four mucinous lung adenocarcinoma patient derived xenograft (PDX) model. We assessed the GPR87 positivity in the tumor and found it to be positive for GPR87. (FIG. 19A) We ran a preliminary study using the AFC to determine whether the AFC would traffic to the tumor in vivo. Twenty-four hours following injection in the tail at 2.5 mg/kg, the tail, tumor, and major organs were collected and imaged with an IVIS system. […] (FIG. 19B) We moved forward with a preliminary study of the AFC in PDX tumor bearing NSG mice. Four mice were injected with 10 mg/kg of AFC once the tumor reached approximately 200-300 mm^3 and blood was drawn at 4 hours, 3 days, and 2 weeks. The mice were intended to be kept for 2 weeks, but one animal had to be euthanized at day 3 due to tumor size. At the 2-week time point, we euthanized the other animals and harvested the organs. The plasma and organ AFC levels were analyzed by a custom ELISA which detects intact AFC, as described in Chapter Four. The results are seen in FIG. 20A. […] We also ran an ELISA with an anti-mouse IgG secondary to determine the total Ab concentrations and assess whether the AFC was being cleared or was not stable (FIG. 20B). The Ab readout detected a higher concentration of Ab than AFC, however, the general trend of clearance is maintained. The concentration even by 3 days is markedly low for our AFC. Whereas we detect <1 μg/ml of AFC at 3 days by either AFC or Ab readout, levels above 10 μg/ml have been reported with similar ADC DAR ratio (˜2) and dose (10 mg/kg). However we are utilizing NSG mice to facilitate the PDX model. It has been reported that NSG mice have enhanced clearance rates of both antibodies and ADCs. However, even in comparison to the clearance rates in NSG mice noted by Li et al., AFC clearance is fast.
We also analyzed the organs at the 3 day and 2 week time point with an ELISA (FIGS. 20C-20D).

[5] = test system: stage four mucinous lung adenocarcinoma patient derived xenograft (PDX); experiment: preliminary in vivo trafficking of AFC, IVIS imaging of PDX tumor bearing mouse; conditions: 24 hours after tail injection at 2.5 mg/kg
Description: We had access to a stage four mucinous lung adenocarcinoma patient derived xenograft (PDX) model. We assessed the GPR87 positivity in the tumor and found it to be positive for GPR87. (FIG. 19A) We ran a preliminary study using the AFC to determine whether the AFC would traffic to the tumor in vivo. Twenty-four hours following injection in the tail at 2.5 mg/kg, the tail, tumor, and major organs were collected and imaged with an IVIS system. […] (FIG. 19B) We moved forward with a preliminary study of the AFC in PDX tumor bearing NSG mice. Four mice were injected with 10 mg/kg of AFC once the tumor reached approximately 200-300 mm^3 and blood was drawn at 4 hours, 3 days, and 2 weeks. The mice were intended to be kept for 2 weeks, but one animal had to be euthanized at day 3 due to tumor size. At the 2-week time point, we euthanized the other animals and harvested the organs. The plasma and organ AFC levels were analyzed by a custom ELISA which detects intact AFC, as described in Chapter Four. The results are seen in FIG. 20A. […] The Ab readout detected a higher concentration of Ab than AFC, however, the general trend of clearance is maintained. […] Whereas we detect <1 μg/ml of AFC at 3 days by either AFC or Ab readout, levels above 10 μg/ml have been reported with similar ADC DAR ratio (˜2) and dose (10 mg/kg). […]

B1: AFC (conjugate)
heavy: EVQLQQSGPDLVKPGASMKISCKASGYSFTDYTMHWVKQSHGKNFEWIGLINPYNDGTTYNQKFKGKATLTVDKSSSTAYMELLSLTSEDSAVYYCASLDYWGQGTSVTVSSAKTTPPSVYPLAPGSAAQTNSMVTLGCLVKGYFPEPVTVTWNSGSLSSGVHTFPAVLQSDLYTLSSSVTVPSSTWPSETVTCNVAHPASSTKVDKKIVPRDCGCKPCICTVPEVSSVFIFPPKPKDVLTITLTPKVTCVVVDISKDDPEVQFSWFVDDVEVHTAQTQPREEQFNSTFRSVSELPIMHQDWLNGKEFKCRVNSAAFPAPIEKTISKTKGRPKAPQVYTIPPPKEQMAKDKVSLTCMITDFFPEDITVEWQWNGQPAENYKNTQPIMDTDGSYFVYSKLNVQKSNWEAGNTFTCSVLHEGLHNHHTEKSLSHSPGKGGGGGMKLKKIKSVLKKIKSVLKKIKSVLKKIKSVVGER
light: DVVMTQTPLSLPVSLGDQASISCRSSQSLVHSSGNTYLHWYLQKPGQSPKLLIYKVSNRFSGVPDRFSGSGSGTDFTLKISRVEAEDLGVYFCSQSTHVPYTFGGGTKLEIKRADAAPTVSIFPPSSEQLTSGGASVVCFLNNFYPKDINVKWKIDGSERQNGVLNSWTDQDSKDSTYSMSSTLTLTKDEYERHNSYTCEATHKTSTSPIVKSFNRNEC
peptide: MKLEEIVSELEEIVSELEEIVKELEEIVYEVGER
In the case of B1, the “AFC concentration in plasma” value [1] is reported as “A small amount of AFC was detected in plasma after 7 days”, the internalization [2] is reported as “internalized” and the internalization [3] is reported as “internalized”. For the same molecule, the “plasma concentration at 3 days” value ([4]; by either AFC or Ab readout) was under 1000 ng/mL, the “concentration in tumor and organs” value ([4]; compared to liver, kidney, spleen, heart and lung, preliminary) was “highest in the tumor at 3 days and at 2 weeks” and the clearance ([4]; plasma at 4 hours, 3 days, 2 weeks) was “rapidly cleared”. For the same molecule, the “fluorescence of tail, tumor and major organs” value [5] was “tail (injection site) and tumor both showed high fluorescence, with little fluorescence in the major organs”.
